Data: paper PMC5651854, “Reconstitution of human shelterin complexes reveals unexpected stoichiometry and dual pathways to enhance telomerase processivity” (Nature Communications, 2017)

Tests used:
ybbR-tagged human TIN2 = biological target: T1, ybbR-tagged human TIN2 (human, UniProt Q9BSI4-2 1-354, Cy3 (from CoA-Cy3, by Sfp phosphopantetheinyl transferase) on the ybbR tag); experiment: fluorescence intensity of Cy3-labelled ybbR-tagged subunits on SDS-PAGE; purified complexes (5 µM) with one ybbR tag on each subunit labelled with CoA-Cy3 (10 µM) by Sfp (1 µM), 50 mM HEPES pH 7.5, 300 mM KCl, 10 mM MgCl2, 1 mM TCEP, overnight at 4 °C; band intensities normalised to TPP1; settings: both partners purified
T1 construct: The methods put the ybbR tag at the C-terminus of TIN2; the results speak of an N-terminal tag on each protein; also called TIN2 (ybbR tag); source: Tni insect cells (baculovirus), co-expressed, purified as complex, labelled with CoA-Cy3 by Sfp; not shown: His6, N-terminal, cleaved; MBP, N-terminal, cleaved
T1 sequence (looked up): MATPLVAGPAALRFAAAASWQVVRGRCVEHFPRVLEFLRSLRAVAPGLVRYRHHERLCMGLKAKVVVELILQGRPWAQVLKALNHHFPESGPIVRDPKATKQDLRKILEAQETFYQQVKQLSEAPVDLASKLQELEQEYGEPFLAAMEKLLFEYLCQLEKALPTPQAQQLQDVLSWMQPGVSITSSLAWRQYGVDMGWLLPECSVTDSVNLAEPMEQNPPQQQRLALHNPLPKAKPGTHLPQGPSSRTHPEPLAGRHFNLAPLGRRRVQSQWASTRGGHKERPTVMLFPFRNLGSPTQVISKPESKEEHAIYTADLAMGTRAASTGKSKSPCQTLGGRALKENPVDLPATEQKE

TRF2 = TRF2 (Homo sapiens, UniProt A0ACI8RU48 1-541); experiment: EMSA (agarose); 500 nM protein; some smearing; Agarose EMSA: 50 mM Tris-HCl pH 8.0, 150 mM KCl, 2 mM MgCl2, 1 mM DTT, 10% glycerol, 0.5 mg/ml BSA, 0.02 mg/ml carrier dsDNA, 30 min 23 C (gel at 4 C); FP: same buffer without carrier DNA, 23 C; settings: protein: recombinant; tags: 6xHis N-term; chain copies: 2; label: 5'-32P on long strand (EMSA); 3' overhang 13 nt

Row | Binder | stoichiometry N (ybbR-tagged human TIN2) [TRF2 per TIN2] | binding result (TRF2)
1 | ybbR-tagged human TRF2 (natural protein, UniProt Q15554 1-542, looked up, Cy3 (from CoA-Cy3, by Sfp phosphopantetheinyl transferase) on the ybbR tag, also called TRF2 (ybbR tag); source: Tni insect cells (baculovirus), co-expressed, purified as complex, labelled with CoA-Cy3 by Sfp) MAAGAGTAGPASGPGVVRDPAASQPRKRPGREGGEGARRSDTMAGGGGSSDGSGRAAGRRASRSSGRARRGRHEPGLGGPAERGAGEARLEEAVNRWVLKFYFHEALRAFRGSRYGDFRQIRDIMQALLVRPLGKEHTVSRLLRVMQCLSRIEEGENLDCSFDMEAELTPLESAINVLEMIKTEFTLTEAVVESSRKLVKEAAVIICIKNKEFEKASKILKKHMSKDPTTQKLRNDLLNIIREKNLAHPVIQNFSYETFQQKMLRFLESHLDDAEPYLLTMAKKALKSESAASSTGKEDKQPAPGPVEKPPREPARQLRNPPTTIGMMTLKAAFKTLSGAQDSEAAFAKLDQKDLVLPTQALPASPALKNKRPRKDENESSAPADGEGGSELQPKNKRMTISRLVLEEDSQSTEPSAGLNSSQEAASAPPSKPTVLNQPLPGEKNPKVPKGKWNSSNGVEEKETWVEEDELFQVQAAPDEDSTTNITKKQKWTVEESEWVKAGVQKYGEGNWAAISKNYPFVNRTAVMIKDRWRTMKRLGMN | 2 | –
2 | C8 (mixed) DNA 1: GACCATGCTTAGGGTTAGGGTTATCATACAAGTTAGGGTTAGGG DNA 2: TTGTATGATAACCCTAACCCTAAGCATGGTC | – | binds
